For the test, the target named is T1, His-tagged human GPC3 antigen (human, UniProt P51654 25-559, limits assumed).
T1 construct: His-tagged antigen captured on HIS1K Octet sensors; also called 人GPC3; human glypican-3
Kind of test: Octet BLI; His-tagged GPC3 captured on HIS1K sensor, bsAb (1+1 Fab-scFv-Fc) as analyte. On the technique in general: Biolayer interferometry detects binding as a change in optical thickness at a sensor tip.

Drawing on patent CN117377689A (XENCOR INC, dated 2024), this text covers Kd for three molecules.

For orientation: Kd means the free concentration of one partner at which half of the binding sites on the other are occupied at equilibrium, for simple one-to-one binding. Lower therefore signals higher affinity.

T1 sequence (P51654 25-559 limits assumed): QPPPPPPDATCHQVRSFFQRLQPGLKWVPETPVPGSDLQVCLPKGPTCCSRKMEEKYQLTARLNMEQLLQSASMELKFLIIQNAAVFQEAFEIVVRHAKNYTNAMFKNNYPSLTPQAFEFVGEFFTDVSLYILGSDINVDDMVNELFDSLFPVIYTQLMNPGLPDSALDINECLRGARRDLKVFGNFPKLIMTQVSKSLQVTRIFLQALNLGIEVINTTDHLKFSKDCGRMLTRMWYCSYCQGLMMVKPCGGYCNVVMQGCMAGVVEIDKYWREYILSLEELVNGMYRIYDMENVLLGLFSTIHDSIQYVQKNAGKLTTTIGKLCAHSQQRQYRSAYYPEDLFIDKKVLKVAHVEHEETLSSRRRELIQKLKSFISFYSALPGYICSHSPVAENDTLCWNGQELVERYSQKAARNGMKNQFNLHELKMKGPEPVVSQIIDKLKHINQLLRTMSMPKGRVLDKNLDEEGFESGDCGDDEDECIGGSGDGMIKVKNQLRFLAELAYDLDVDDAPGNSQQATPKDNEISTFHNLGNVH

B1: XENP35843 (GPC3-A H1.1_L1.16, 1+1 Fab-scFv-Fc bsAb with CD3 High-Int #1 scFv) (bispecific antibody)
chain 1: QVQLVQSGAEVKKPGASVKVSCKASGYTFTDYEMHWVRQAPGQGLEWMGALEPKTGDTAYSQKFQGRVTMTADKSISTAYMELSRLRSDDTAVYYCTRFYSYTYWGQGTLVTVSSASTKGPSVFPLAPSSKSTSGGTAALGCLVKDYFPEPVTVSWNSGALTSGVHTFPAVLQSSGLYSLSSVVTVPSSSLGTQTYICNVNHKPSDTKVDKKVEPKSCDKTHTCPPCPAPPVAGPSVFLFPPKPKDTLMISRTPEVTCVVVDVKHEDPEVKFNWYVDGVEVHNAKTKPREEEYNSTYRVVSVLTVLHQDWLNGKEYKCKVSNKALPAPIEKTISKAKGQPREPQVYTLPPSREEMTKNQVSLTCDVSGFYPSDIAVEWESDGQPENNYKTTPPVLDSDGSFFLYSKLTVDKSRWEQGDVFSCSVMHEALHNHYTQKSLSLSPGK
chain 2: not shown
chain 3: DVVMTQSPLSLPVTLGQPASISCRSSQSLVHSSGNTYLHWYQQRPGQSPRLLIYKVSNRFSGVPDRFSGSGSGTDFTLKISRVEAEDVGVYFCSQSTHVPPTFGSGTKLEIKRTVAAPSVFIFPPSDEQLKSGTASVVCLLNNFYPREAKVQWKVDNALQSGNSQESVTEQDSKDSTYSLSSTLTLSKADYEKHKVYACEVTHQGLSSPVTKSFNRGEC
Consider B1, for which the affinity, expressed as Kd, was 100 nM. This counts as sub-micromolar.

B2: XENP36941 (GPC3-A H1.1_L1.29, 1+1 Fab-scFv-Fc bsAb with CD3 High-Int #1 scFv) (bispecific antibody)
chain 1: QVQLVQSGAEVKKPGASVKVSCKASGYTFTDYEMHWVRQAPGQGLEWMGALEPKTGDTAYSQKFQGRVTMTADKSISTAYMELSRLRSDDTAVYYCTRFYSYTYWGQGTLVTVSSASTKGPSVFPLAPSSKSTSGGTAALGCLVKDYFPEPVTVSWNSGALTSGVHTFPAVLQSSGLYSLSSVVTVPSSSLGTQTYICNVNHKPSDTKVDKKVEPKSCDKTHTCPPCPAPPVAGPSVFLFPPKPKDTLMISRTPEVTCVVVDVKHEDPEVKFNWYVDGVEVHNAKTKPREEEYNSTYRVVSVLTVLHQDWLNGKEYKCKVSNKALPAPIEKTISKAKGQPREPQVYTLPPSREEMTKNQVSLTCDVSGFYPSDIAVEWESDGQPENNYKTTPPVLDSDGSFFLYSKLTVDKSRWEQGDVFSCSVMHEALHNHYTQKSLSLSPGK
chain 2: not shown
chain 3: DVVMTQSPLSLPVTLGQPASISCRSSQSLVHSNGNTYLHWYQQRPGQSPRLLIYQVSNRFSGVPDRFSGSGSGTDFTLKISRVEAEDVGVYFCSQNTHVPPTFGSGTKLEIKRTVAAPSVFIFPPSDEQLKSGTASVVCLLNNFYPREAKVQWKVDNALQSGNSQESVTEQDSKDSTYSLSSTLTLSKADYEKHKVYACEVTHQGLSSPVTKSFNRGEC
As for B2, the affinity, expressed as Kd, was 70 nM.

B3: XENP36140 (GPC3-A H1.1_L1.31, 1+1 Fab-scFv-Fc bsAb with CD3 High-Int #1 scFv) (bispecific antibody)
chain 1: QVQLVQSGAEVKKPGASVKVSCKASGYTFTDYEMHWVRQAPGQGLEWMGALEPKTGDTAYSQKFQGRVTMTADKSISTAYMELSRLRSDDTAVYYCTRFYSYTYWGQGTLVTVSSASTKGPSVFPLAPSSKSTSGGTAALGCLVKDYFPEPVTVSWNSGALTSGVHTFPAVLQSSGLYSLSSVVTVPSSSLGTQTYICNVNHKPSDTKVDKKVEPKSCDKTHTCPPCPAPPVAGPSVFLFPPKPKDTLMISRTPEVTCVVVDVKHEDPEVKFNWYVDGVEVHNAKTKPREEEYNSTYRVVSVLTVLHQDWLNGKEYKCKVSNKALPAPIEKTISKAKGQPREPQVYTLPPSREEMTKNQVSLTCDVSGFYPSDIAVEWESDGQPENNYKTTPPVLDSDGSFFLYSKLTVDKSRWEQGDVFSCSVMHEALHNHYTQKSLSLSPGK
chain 2: not shown
chain 3: DVVMTQSPLSLPVTLGQPASISCRSSQSLVHSNGNTYLHWYQQRPGQSPRLLIYYVSNRFSGVPDRFSGSGSGTDFTLKISRVEAEDVGVYFCSQNTHVPPTFGSGTKLEIKRTVAAPSVFIFPPSDEQLKSGTASVVCLLNNFYPREAKVQWKVDNALQSGNSQESVTEQDSKDSTYSLSSTLTLSKADYEKHKVYACEVTHQGLSSPVTKSFNRGEC
Molecule B3 registered a Kd of 400 nM.
